Reference: PMC4835091, “Characterization of the FtsZ C-Terminal Variable (CTV) Region in Z-Ring Assembly and Interaction with the Z-Ring Stabilizer ZapD in E. coli Cytokinesis” (PLoS ONE, 2016)
Changes are numbered by the printed parent chain.

Tests used:
Assay in all cases: co-sedimentation; FtsZ or CTV mutant 5 μM with ZapD 1 or 5 μM in 50 mM K-MOPS pH 6.5, 50 mM KCl, 2.5 mM MgCl2, 3 μM BSA, 1 mM GTP, room temperature; TLA100.2, 80,000 rpm, 10 min; ZapD in the pellet by SDS-PAGE
Details in all cases: both partners purified
FtsZ(DQAK) (purified) = target: T1, FtsZ(DQAK) (purified) (E. coli, UniProt P0A9A6 1-383, CTV KQAD replaced by DQAK)
T1 construct: FtsZ of E. coli with the native CTV KQAD replaced by DQAK (net-neutral); pKHH9, pET-21b(+); also called net-neutral CTV mutant; source: E. coli C41(DE3), purified (25% saturated ammonium sulfate cut)
T1 sequence (looked up): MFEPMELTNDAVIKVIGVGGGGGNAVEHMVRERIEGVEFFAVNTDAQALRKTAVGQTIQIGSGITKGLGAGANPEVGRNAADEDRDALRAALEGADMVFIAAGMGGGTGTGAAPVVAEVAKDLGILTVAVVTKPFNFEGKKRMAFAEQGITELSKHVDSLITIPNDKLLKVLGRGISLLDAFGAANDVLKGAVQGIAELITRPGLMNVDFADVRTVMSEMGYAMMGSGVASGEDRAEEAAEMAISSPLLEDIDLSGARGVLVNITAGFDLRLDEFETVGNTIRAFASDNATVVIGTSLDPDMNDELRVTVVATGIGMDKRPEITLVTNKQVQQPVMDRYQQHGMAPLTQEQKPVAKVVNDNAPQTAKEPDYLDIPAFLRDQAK

FtsZ(QQQQ) (purified) = target: T2, FtsZ(QQQQ) (purified) (E. coli, UniProt P0A9A6 1-383, CTV KQAD replaced by QQQQ)
T2 construct: FtsZ of E. coli with the native CTV KQAD replaced by QQQQ (net-neutral); pLT1, pET-21b(+); also called net-neutral CTV mutant; source: E. coli C41(DE3), purified (25% saturated ammonium sulfate cut)
T2 sequence (looked up): T1 sequence (looked up) with D380Q, A382Q, K383Q

FtsZ(KQAK) (purified) = target: T3, FtsZ(KQAK) (purified) (E. coli, UniProt P0A9A6 1-383, CTV KQAD replaced by KQAK)
T3 construct: FtsZ of E. coli with the native CTV KQAD replaced by KQAK (net-positive); pKHH8, pET-21b(+); also called net-positive CTV mutant; source: E. coli C41(DE3), purified (25% saturated ammonium sulfate cut)
T3 sequence (looked up): T1 sequence (looked up) with D380K

FtsZ(RQAR) (purified) = target: T4, FtsZ(RQAR) (purified) (E. coli, UniProt P0A9A6 1-383, CTV KQAD replaced by RQAR)
T4 construct: FtsZ of E. coli with the native CTV KQAD replaced by RQAR (net-positive); pAM3, pET-21b(+); also called net-positive CTV mutant; source: E. coli C41(DE3), purified (25% saturated ammonium sulfate cut)
T4 sequence (looked up): T1 sequence (looked up) with D380R, K383R

Measured: binding result

B1: ZapD (purified) (natural protein, E. coli, UniProt P36680 1-247, looked up)
chain: MQTQVLFEHPLNEKMRTWLRIEFLIQQLTVNLPIVDHAGALHFFRNVSELLDVFERGEVRTELLKELDRQQRKLQTWIGVPGVDQSRIEALIQQLKAAGSVLISAPRIGQFLREDRLIALVRQRLSIPGGCCSFDLPTLHIWLHLPQAQRDSQVETWIASLNPLTQALTMVLDLIRQSAPFRKQTSLNGFYQDNGGDADLLRLNLSLDSQLYPQISGHKSRFAIRFMPLDTENGQVPERLDFELACC
notes: ZapD, Z-ring stabilizer of E. coli; also called purified ZapD; pET28b-His10-Smt3-ZapD
binds: all assays above
